{"source": "patent US20180371090A1", "binders": {"B1": {"name": "Antibody 1, sIgG4-anti-CD3_L2K (antibody, part only; not given: L2K light chain, part only)", "heavy": "DVQLVQSGAEVKKPGASVKVSCKASGYTFTRYTMHWVRQAPGQGLEWIGYINPSRGYTNYADSVKGRFTITTDKSTSTAYMELSSLRSEDTATYYCARYYDDHYCLDYWGQGTTVTVSSASTKGPSVFPLAPCSRSTSESTAALGCLVKDYFPEPVTVSWNSGALTSGVHTFPAVLQSSGLYSLSSVVTVPSSSLGTKTYTCNVDHKPSNTKVDKRVESKYGPPCPPCPAPPVAGPSVFLFPPKPKDTLMISRTPEVTCVVVDVSQEDPEVQFNWYVDGVEVHNAKTKPREEQFNSTYRVVSVLTVLHQDWLNGKEYKCKVSNKGLPSSIEKTISKAKGQPREPQVYTLPPSQEEMTKNQVSLTCLVKGFYPSDIAVEWESNGQPENNYKTTPPVLDSDGSFFLYSRLTVDKSRWQEGNVFSCSVMHEALHNHYTQKSLSLSLGK"}, "B2": {"name": "Antibody 4, anti-CD3 x anti-CD20 bispecific antibody with chimeric IgG4 constant regions (bispecific antibody, part only; not given: variable domains of both arms, not shown: another chain or arm of the molecule)", "constant 1": "ASTKGPSVFPLAPCSRSTSESTAALGCLVKDYFPEPVTVSWNSGALTSGVHTFPAVLQSSGLYSLSSVVTVPSSSLGTKTYTCNVDHKPSNTKVDKRVESKYGPPCPPCPAPPVAGPSVFLFPPKPKDTLMISRTPEVTCVVVDVSQEDPEVQFNWYVDGVEVHNAKTKPREEQFNSTYRVVSVLTVLHQDWLNGKEYKCKVSNKGLPSSIEKTISKAKGQPREPQVYTLPPSQEEMTKNQVSLTCLVKGFYPSDIAVEWESNGQPENNYKTTPPVLDSDGSFFLYSRLTVDKSRWQEGNVFSCSVMHEALHNHYTQKSLSLSLGK", "constant 2": "B2 constant 1 with H314R, Y315F"}}, "key": {"[1]": {"target": "FcγRI and FcγRIIA on U937 cells", "assay": "flow cytometry on U937 cells (FcγRI and FcγRIIA), FITC goat anti-human Fab secondary, MFI"}, "[2]": {"target": "human CD3 on Jurkat cells (human) (UniProt P07766)", "assay": "flow cytometry on Jurkat cells, FITC anti-human IgG secondary"}, "[3]": {"target": "His-tagged cynomolgus FcγRIIB (cynomolgus)", "assay": "SPR steady-state, His-captured receptor, 25 C"}, "[4]": {"target": "His-tagged cynomolgus FcγRIIA (cynomolgus)", "assay": "SPR steady-state, His-captured receptor, 25 C"}, "[5]": {"target": "His-tagged human FcγRIIB (human) (UniProt P31994)", "sequence (P31994 46-217 limits assumed)": "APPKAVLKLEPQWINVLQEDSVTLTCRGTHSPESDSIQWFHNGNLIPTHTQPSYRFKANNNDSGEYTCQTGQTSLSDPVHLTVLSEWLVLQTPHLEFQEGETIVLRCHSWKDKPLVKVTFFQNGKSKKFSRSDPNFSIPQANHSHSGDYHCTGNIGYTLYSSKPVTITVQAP", "assay": "SPR steady-state, His-captured receptor, 25 C"}, "[6]": {"target": "His-tagged cynomolgus FcγRIIIA (cynomolgus) (UniProt Q8SPW2)", "sequence (Q8SPW2 17-208 limits assumed)": "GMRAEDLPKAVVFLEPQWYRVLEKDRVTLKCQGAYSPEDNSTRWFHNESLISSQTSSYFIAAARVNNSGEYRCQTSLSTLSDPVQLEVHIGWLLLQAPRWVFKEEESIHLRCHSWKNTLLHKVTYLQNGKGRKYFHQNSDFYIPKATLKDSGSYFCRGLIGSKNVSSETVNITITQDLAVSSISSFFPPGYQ", "assay": "SPR steady-state, His-captured receptor, 25 C"}, "[7]": {"target": "His-tagged human FcγRIIA (H131) (human) (UniProt P12318)", "sequence (P12318 36-218 limits assumed)": "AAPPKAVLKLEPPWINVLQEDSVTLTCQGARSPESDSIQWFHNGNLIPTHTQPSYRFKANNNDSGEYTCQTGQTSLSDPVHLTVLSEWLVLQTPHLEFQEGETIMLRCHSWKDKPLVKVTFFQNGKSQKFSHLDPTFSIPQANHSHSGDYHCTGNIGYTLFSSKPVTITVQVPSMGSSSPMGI", "assay": "SPR steady-state, His-captured receptor, 25 C"}, "[8]": {"target": "His-tagged human FcγRIIA (R131) (human) (UniProt P12318)", "sequence (P12318 36-218 H167R limits assumed)": "as the sequence (P12318 36-218 limits assumed) above, with H132R counted along it", "assay": "SPR steady-state, His-captured receptor, 25 C"}}, "note": "Positions count from the first letter of the chain named.", "data": [{"binder": "B1", "values": [{"measurement": "EC50", "setting": "[1]", "result": 0.0335, "unit": "µM"}, {"measurement": "Geom. Mean:FITC-A", "setting": "[2]", "result": 1390}]}, {"binder": "B2", "values": [{"measurement": "Kd", "setting": "[3]", "result": 13.9, "unit": "µM"}, {"measurement": "Kd", "setting": "[4]", "result": 23.1, "unit": "µM"}, {"measurement": "Kd", "setting": "[5]", "result": 123, "unit": "µM"}, {"measurement": "Kd", "setting": "[6]", "result": 66.3, "unit": "µM"}, {"measurement": "Kd", "setting": "[7]", "result": 12, "unit": "µM"}, {"measurement": "Kd", "setting": "[8]", "result": 19.3, "unit": "µM"}]}]}
